Molecular target: 3H-acetylated histone H4 peptide ([3H]-Ac(H41-24))

| Protein | in vitro histone deacetylase assay (release of 3H-acetate from the peptide by immunoprecipitated enzyme) |
| --- | --- |
| C-terminally flag epitope-tagged HDAC3 (protein) MAKTVAYFYDPDVGNFHYGAGHPMKPHRLALTHSLVLHYGLYKKMIVFKPYQASQHDMCRFHSEDYIDFLQRVSPTNMQGFTKSLNAFNVGDDCPVFPGLFEFCSRYTGASLQGATQLNNKICDIAINWAGGLHHAKKFEASGFCYVNDIVIGILELLKYHPRVLYIDIDIHHGDGVQEAFYLTDRVMTVSFHKYGNYFFPGTGDMYEVGAESGRYYCLNVPLRDGIDDQSYKHLFQPVINQVVDFYQPTCIVLQCGADSLGCDRLGCFNLSIRGHGECVEYVKSFNIPLLVLGGGGYTVRNVARCWTYETSLLVEEAISEELPYSEYFEYFAPDFTLHPDVSTRIENQNSRQYLDQIRQTIFENLKMLNHAPSVQIHDVPADLLTYDRTDEADAEERGPEENYSRPEAPNEFYDGDHDNDKESDVEI | HDAC9 could deacetylate the histone peptide substrate at a level that was equivalent to UDAC3 and HDAC4 |
| C-terminally flag epitope-tagged HDAC4 (protein) MSSQSHPDGLSGRDQPVELLNPARVNHMPSTVDVATALPLQVAPSAVPMDLRLDHQFSLPVAEPALREQQLQQELLALKQKQQIQRQILIAEFQRQHEQLSRQHEAQLHEHIKQQQEMLAMKHQQELLEHQRKLERHRQEQELEKQHREQKLQQLKNKEKGKESAVASTEVKMKLQEFVLNKKKALAHRNLNHCISSDPRYWYGKTQHSSLDQSSPPQSGVSTSYNHPVLGMYDAKDDFPLRKTASEPNLKLRSRLKQKVAERRSSPLLRRKDGPVVTALKKRPLDVTDSACSSAPGSGPSSPNNSSGSVSAENGIAPAVPSIPAETSLAHRLVAREGSAAPLPLYTSPSLPNITLGLPATGPSAGTAGQQDAERLTLPALQQRLSLFPGTHLTPYLSTSPLERDGGAAHSPLLQHMVLLEQPPAQAPLVTGLGALPLHAQSLVGADRVSPSIHKLRQHRPLGRTQSAPLPQNAQALQHLVIQQQHQQFLEKHKQQFQQQQLQMNKIIPKPSEPARQPESHPEETEEELREHQALLDEPYLDRLPGQKEAHAQAGVQVKQEPIESDEEEAEPPREVEPGQRQPSEQELLFRQQALLLEQQRIHQLRNYQASMEAAGIPVSFGGHRPLSRAQSSPASATFPVSVQEPPTKPRFTTGLVYDTLMLKHQCTCGSSSSHPEHAGRIQSIWSRLQETGLRGKCECIRGRKATLEELQTVHSEAHTLLYGTNPLNRQKLDSKKLLGSLASVFVRLPCGGVGVDSDTIWNEVHSAGAARLAVGCVVELVFKVATGELKNGFAVVRPPGHHAEESTPMGFCYFNSVAVAAKLLQQRLSVSKILIVDWDVHHGNGTQQAFYSDPSVLYMSLHRYDDGNFFPGSGAPDEVGTGPGVGFNVNMAFTGGLDPPMGDAEYLAAFRTVVMPIASEFAPDVVLVSSGFDAVEGHPTPLGGYNLSARCFGYLTKQLMGLAGGRIVLALEGGHDLTAICDASEACVSALLGNELDPLPEKVLQQRPNANAVRSMEKVMEIHSKYWRCLQRTTSTAGRSLIEAQTCENEEAETVTAMASLSVGVKPAEKRPDEEPMEEEPPL | HDAC9 could deacetylate the histone peptide substrate at a level that was equivalent to UDAC3 and HDAC4 |

From patent publication US20040077046
